Test results: patent US8114968 (dated 2012)
Where two headings read alike, the source gives them in different places. Blank lines part the entries; values can stand above or below the binder they belong to.

Experiments:
murine MMP-12 [1] = target: T1, murine MMP-12 (UniProt P34960 110-473); experiment: enzyme inhibition
M118-F11 [2] = target: M118-F11
M107-A12 [3] = target: M107-A12
M109-G11 [4] = target: M109-G11
M121-E07 [5] = target: M121-E07
murine MMP-12 [6] = target: T1, murine MMP-12; experiment: enzyme inhibition; recombinant; peptide substrate
human MMP-12 [7] = target: T2, human MMP-12 (UniProt P39900 106-470)
human MMP-12 [8] = target: T2, human MMP-12; experiment: enzyme inhibition
murine MMP-12 [9] = target: T1, murine MMP-12; experiment: -; column head prints nM
murine MMP-12 [10] = target: T1, murine MMP-12
M118-F11 [11] = experiment: -; column head prints nM
Target sequence in this assay (P34960 110-473): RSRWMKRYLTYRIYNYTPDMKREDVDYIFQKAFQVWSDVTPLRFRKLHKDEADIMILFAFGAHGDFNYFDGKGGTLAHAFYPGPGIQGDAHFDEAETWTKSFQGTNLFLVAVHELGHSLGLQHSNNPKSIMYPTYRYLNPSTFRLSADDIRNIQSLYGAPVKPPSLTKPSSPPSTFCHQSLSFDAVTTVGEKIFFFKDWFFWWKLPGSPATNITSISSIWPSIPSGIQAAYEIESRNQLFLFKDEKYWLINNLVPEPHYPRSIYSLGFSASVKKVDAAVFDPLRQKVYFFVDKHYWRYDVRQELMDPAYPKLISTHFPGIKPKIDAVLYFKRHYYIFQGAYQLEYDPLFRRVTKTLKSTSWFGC

M121-E07 [12] = experiment: -; column head prints nM
Target sequence in this assay (P34960 110-473): as above

M107-A12 [13] = target: M107-A12; remark: listed apart in the source
Target sequence in this assay (P34960 110-473): as above

M109-G11 [14] = target: M109-G11; remark: listed apart in the source
Target sequence in this assay (P34960 110-473): as above

T1 sequence (P34960 110-473): as above
Chain of M088-H10 (P34960 110-473): as above

Kd (M118-F11 [2]): 1.17 nM | Kd (M107-A12 [3]): 1.8 nM | Kd (M109-G11 [4]): 7.5 nM | Kd (M121-E07 [5]): 0.197 nM
B3: Human MMP12 (enzyme)
chain: GPVWRKHYITYRINNYTPDMNREDVDYAIRKAFQVWSNVTPLKFSKINTGMADILVVFARGAHGDFHAFDGKGGILAHAFGPGSGIGGDAHFDEDEFWTTHSGGTNLFLTAVHEIGHSLGLGHSSDPKAVMFPTYKYVDINTFRLSADDIRGIQSLYGDPKENQRLPNPDNSEPALCDPNLSFDAVTTVGNKIFFFKDRFFWLKVSERPKTSVNLISSLWPTLPSGIEAAYEIEARNQVFLFKDDKYWLISNLRPEPNYPKSIHSFGFPNFVKKIDAAVFNPRFYRTYFFVDNQYWRYDERRQMMDPGYPKLITKNFQGIGPKIDAVFYSKNKYYYFFQGSNQFEYDFLLQRITKTLKSNSWFGC

IC50 (human MMP-12 [8]): 0.233 nM
B5: 539B-M131A06-GA-S (antibody, V domains shown)
VH: EVQLLESGGGLVQPGGSLRLSCAASGFTFSWYWMHWVRQAPGKGLEWVSGISPSGGMTMYADSVKGRFTISRDNSKNTLYLQMNSLRAEDTAVYYCARDIVGPYSAGLFDYWGRGTLVTVSS
VL: DIQMTQSPSSLSASVGDRVTITCRASQSIYTYLNWYQQKPGKAPKLLIYAASSLQSGVPSRFSGSGSGTDFTLTISSLQPEDFATYYCQQAGIFGQGTKLEIKR

IC50 (human MMP-12 [8]): 0.321 nM | Kd (human MMP-12 [7]): 0.18 nM | Kd (murine MMP-12 [9]): 0.0727 nM
B6: 539B-M131A06 (antibody, V domains shown)
VH: EVQLLESGGGLVQPGGSLRLSCAASGFTFSWYWMHWVRQAPGKGLEWVSGISPSGGMTMYADSVKGRFTISRDNSKNTLYLQMNSLRAEDTAVYYCARDIVGPYSAGLFDYWGRGTLVTVSS
VL: DIQMTQSPSSLSASVGDRVTITCRANQSIYTYLNWYQQKPGKAPELLIYAASSLQSGVPSRFSGSGSGTDFTLTISSLQPEDFATYYCQQAGIFGQGTKLEIK

Kd (murine MMP-12 [10]): 1.3 nM | Kd (human MMP-12 [7]): 4.2 nM
B9: 539B-M0071-D09 (Fab, V domains shown)
VH: EVQLLESGGGLVQPGGSLRLSCAASGFTFSPYWMHWVRQAPGKGLEWVSGISSSGGDTLYADSVKGRFTISRDNSKNTLYLQMNSLRAEDTAVYYCAKDIRGAYSSGLFDYWGRGTLVTVSS
VL: DIQMTQSPSSLSASVGDRVTITCRANQSIYTYLNWYQQKPGKAPELLIYAASSLQSGVPSRFSGSGSGTDFTLTISSLQPEDFATYYCQQAGIFGQGTKLEIK

Kd (human MMP-12 [7]): 1 nM
B10: 539B-M0071-H03 (Fab, V domains shown)
VH: EVQLLESGGGLVQPGGSLRLSCAASGFTFSPYWMHWVRQAPGKGLEWVSGIGPSGGPTFYADSIKGRFTISRDNSKNTLYLQMNSLRAEDTAVYYCAKDIRGAYSSGLFDYWGRGTLVTVSS
VL: DIQMTQSPSSLSASVGDRVTITCRANQSIYTYLNWYQQKPGKAPELLIYAASSLQSGVPSRFSGSGSGTDFTLTISSLQPEDFATYYCQQAGIFGQGTKLEIK

Kd (M118-F11 [11]): 0.727 nM | Kd (M121-E07 [12]): 0.181 nM | Kd (M107-A12 [13]): 0.9 nM | Kd (M109-G11 [14]): 1 nM | Kd (M088-H10): 34.4 nM
B11: Mouse MMP12 (enzyme)
chain: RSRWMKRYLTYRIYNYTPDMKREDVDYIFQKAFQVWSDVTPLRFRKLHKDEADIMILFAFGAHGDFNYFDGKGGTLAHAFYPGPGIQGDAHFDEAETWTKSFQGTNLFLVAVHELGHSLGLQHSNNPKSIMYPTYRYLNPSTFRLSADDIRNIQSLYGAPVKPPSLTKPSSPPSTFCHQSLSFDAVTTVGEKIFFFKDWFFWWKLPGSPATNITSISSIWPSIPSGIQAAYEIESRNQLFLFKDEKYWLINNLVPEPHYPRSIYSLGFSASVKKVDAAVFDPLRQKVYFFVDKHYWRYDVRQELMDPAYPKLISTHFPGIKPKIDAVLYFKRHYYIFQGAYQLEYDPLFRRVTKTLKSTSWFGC

Further lines, the binder ahead of its results:

B1: 539B-M0011-H11 Fab (Fab, V domains shown)
VH: EVQLLESGGGLVQPGGSLRLSCAASGFTFSWYNMWWVRQAPGKGLEWVSYIYPSGGNTGYADSVKGRFTISRDNSKNTLYLQMNSLRAEDTAVYYCAVFEYSSSGPQGYWGQGTLVTVSS
VL: QSALTQPPSVSVAPGQTARITCGGNNIGTKSVHWYQQKSGQAPVLVVYDNSDRPSGIPERFSGSNSGNTATLTISRVEAGDEADYYCQVWDNSIDHVVFGGGTKLTVL
IC50 (murine MMP-12 [1]): 9 nM

B2: 539B-M11H11 IgG (antibody, V domains shown)
VH: EVQLLESGGGLVQPGGSLRLSCAASGFTFSWYNMWWVRQAPGKGLEWVSYIYPSGGNTGYADSVKGRFTISRDNSKNTLYLQMNSLRAEDTAVYYCAVFEYSSSGPQGYWGQGTLVTVSS
VL: QSALTQPPSVSVAPGQTARITCGGNNIGTKSVHWYQQKSGQAPVLVVYDNSDRPSGIPERFSGSNSGNTATLTISRVEAGDEADYYCQVWDNSIDHVVFGGGTKLTVL
IC50 (murine MMP-12 [1]): 3 nM

B4: 539B-M0008-H09 (format not stated) (antibody, V domains shown)
VH: EVQLLESGGGLVQPGGSLRLSCAASGFTFSDYNMHWVRQAPGKGLEWVSYIGPSGGYTHYADSVKGRFTISRDNSKNTLYLQMNSLRAEDTAVYYCAKDIRGAYSSGLFDYWGRGTLVTVSS
VL: DIQMTQSPSSLSASVGDRVTITCRANQSIYTYLNWYQQKPGKAPELLIYAASSLQSGVPSRFSGSGSGTDFTLTISSLQPEDFATYYCQQAGIFGQGTKLEIK
IC50 (murine MMP-12 [6]): 3.7 nM | Kd (human MMP-12 [7]): 18 nM

B7: 539B-M0065-E12 (Fab, V domains shown)
VH: EVQLLESGGGLVQPGGSLRLSCAASGFTFSWYNMHWVRQAPGKGLEWVSGISPSGGNTMYADSVKGRFTISRDNSKNTLYLQMNSLRAEDTAVYYCAKDIRGAYSSGLFDYWGRGTLVTVSS
VL: DIQMTQSPSSLSASVGDRVTITCRANQSIYTYLNWYQQKPGKAPELLIYAASSLQSGVPSRFSGSGSGTDFTLTISSLQPEDFATYYCQQAGIFGQGTKLEIK
Kd (murine MMP-12 [10]): 1.7 nM | Kd (human MMP-12 [7]): 1.1 nM

B8: 539B-M0069-D10 (Fab, V domains shown)
VH: EVQLLESGGGLVQPGGSLRLSCAASGFTFSLYHMHWVRQAPGKGLEWVSGIGPSGGWTIYADSVKGRFTISRDNSKNTLYLQMNSLRAEDTAVYYCAKDIRGAYSSGLFDYWGRGTLVTVSS
VL: DIQMTQSPSSLSASVGDRVTITCRANQSIYTYLNWYQQKPGKAPELLIYAASSLQSGVPSRFSGSGSGTDFTLTISSLQPEDFATYYCQQAGIFGQGTKLEIK
Kd (murine MMP-12 [10]): 3.4 nM | Kd (human MMP-12 [7]): 5.7 nM
